Test results published in patent US20090166224A1 (published 2009).

Experiments:
Assay in all cases: human serum on Con A/WGA/Jacalin column, lectin-specific displacer fraction, LC-MS/MS; grade = SEQUEST rank group (+ = ranks 1-5, ++++ = 16-20)
[1] = target: T1, VITRONECTIN (human, UniProt P04004 20-478)
T1 construct: from human serum; also called VTNC

[2] = target: T2, HEMOPEXIN (human, UniProt P02790 24-462)
T2 construct: from human serum
T2 sequence (looked up): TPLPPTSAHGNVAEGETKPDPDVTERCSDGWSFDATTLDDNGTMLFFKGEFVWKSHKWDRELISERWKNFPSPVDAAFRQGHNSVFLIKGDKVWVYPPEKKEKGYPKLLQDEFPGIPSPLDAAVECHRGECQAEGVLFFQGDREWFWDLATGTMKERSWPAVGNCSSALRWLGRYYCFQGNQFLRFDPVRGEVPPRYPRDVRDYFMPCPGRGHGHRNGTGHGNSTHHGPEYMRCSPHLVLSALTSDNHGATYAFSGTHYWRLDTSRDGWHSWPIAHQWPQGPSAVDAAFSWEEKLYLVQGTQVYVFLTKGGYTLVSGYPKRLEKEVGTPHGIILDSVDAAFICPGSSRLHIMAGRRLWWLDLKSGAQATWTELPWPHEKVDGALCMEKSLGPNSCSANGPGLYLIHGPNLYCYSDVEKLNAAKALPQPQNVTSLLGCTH

[3] = target: T3, HAPTOGLOBIN-RELATED PROTEIN (human, UniProt P00739 1-348, limits assumed)
T3 construct: from human serum; also called HPTR
T3 sequence (looked up): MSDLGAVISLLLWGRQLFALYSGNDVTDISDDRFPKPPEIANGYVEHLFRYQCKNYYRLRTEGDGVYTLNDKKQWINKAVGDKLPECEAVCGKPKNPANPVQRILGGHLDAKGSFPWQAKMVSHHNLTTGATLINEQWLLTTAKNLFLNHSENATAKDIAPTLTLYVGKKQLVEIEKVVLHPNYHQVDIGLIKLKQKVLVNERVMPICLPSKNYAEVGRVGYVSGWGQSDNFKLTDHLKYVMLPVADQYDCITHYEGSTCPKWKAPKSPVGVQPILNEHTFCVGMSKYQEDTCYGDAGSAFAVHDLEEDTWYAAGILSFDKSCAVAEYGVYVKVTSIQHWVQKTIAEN

[4] = target: T4, IG ALPHA-1 CHAIN C REGION (human, UniProt P01876-1 1-353)
T4 construct: domain: C region; Polyclonal serum IgA, identified through its constant region; variable regions and light chains not defined; also called ALC1

[5] = target: T5, PLASMA PROTEASE C1 INHIBITOR (human, UniProt P05155 23-500)
T5 construct: from human serum; also called IC1
T5 sequence (looked up): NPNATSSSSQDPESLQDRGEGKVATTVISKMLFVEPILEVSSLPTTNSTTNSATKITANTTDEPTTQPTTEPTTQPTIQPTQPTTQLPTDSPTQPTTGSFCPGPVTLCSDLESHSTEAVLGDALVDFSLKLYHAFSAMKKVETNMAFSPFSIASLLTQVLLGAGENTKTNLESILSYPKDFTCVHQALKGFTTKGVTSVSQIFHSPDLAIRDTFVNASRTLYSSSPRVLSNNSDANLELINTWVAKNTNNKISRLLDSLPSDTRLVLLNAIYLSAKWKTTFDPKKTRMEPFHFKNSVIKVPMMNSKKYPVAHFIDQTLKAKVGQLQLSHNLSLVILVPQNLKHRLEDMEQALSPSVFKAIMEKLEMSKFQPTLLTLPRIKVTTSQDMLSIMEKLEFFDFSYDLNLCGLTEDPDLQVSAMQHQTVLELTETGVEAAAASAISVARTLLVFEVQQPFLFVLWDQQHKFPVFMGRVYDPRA

[6] = target: T6, CARBOXYPEPTIDASE N 83 KDA CHAIN (human, UniProt P22792 22-545)
T6 construct: from human serum; also called CBP8
T6 sequence (looked up): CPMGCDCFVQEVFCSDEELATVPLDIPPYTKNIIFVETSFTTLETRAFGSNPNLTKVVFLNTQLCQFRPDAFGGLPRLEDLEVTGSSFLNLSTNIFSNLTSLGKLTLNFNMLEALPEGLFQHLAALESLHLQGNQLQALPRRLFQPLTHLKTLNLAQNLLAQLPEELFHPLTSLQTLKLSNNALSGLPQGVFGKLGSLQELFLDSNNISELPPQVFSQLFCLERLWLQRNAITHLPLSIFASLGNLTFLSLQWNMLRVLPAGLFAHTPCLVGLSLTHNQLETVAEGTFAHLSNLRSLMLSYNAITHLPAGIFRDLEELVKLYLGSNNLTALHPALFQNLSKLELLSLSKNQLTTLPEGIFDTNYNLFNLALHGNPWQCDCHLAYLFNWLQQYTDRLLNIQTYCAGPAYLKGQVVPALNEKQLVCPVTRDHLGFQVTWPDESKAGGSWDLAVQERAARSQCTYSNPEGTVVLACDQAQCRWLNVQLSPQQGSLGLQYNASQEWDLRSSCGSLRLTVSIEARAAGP

T1 sequence (P04004 20-478 limits assumed): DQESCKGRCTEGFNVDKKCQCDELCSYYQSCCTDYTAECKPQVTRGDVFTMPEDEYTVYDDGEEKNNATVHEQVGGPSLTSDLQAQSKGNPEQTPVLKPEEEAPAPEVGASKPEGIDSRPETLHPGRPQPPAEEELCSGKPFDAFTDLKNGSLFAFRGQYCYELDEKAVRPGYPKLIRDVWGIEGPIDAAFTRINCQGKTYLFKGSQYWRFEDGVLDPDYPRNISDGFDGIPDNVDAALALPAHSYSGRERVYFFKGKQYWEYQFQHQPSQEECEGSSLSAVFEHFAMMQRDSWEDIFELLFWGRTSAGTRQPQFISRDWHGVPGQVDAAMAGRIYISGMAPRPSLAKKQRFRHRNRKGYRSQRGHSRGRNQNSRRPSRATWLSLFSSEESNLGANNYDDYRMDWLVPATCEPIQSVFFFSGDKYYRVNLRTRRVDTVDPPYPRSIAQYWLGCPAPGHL
T4 sequence (P01876 other isoform, or with tags, fused parts or gaps limits assumed): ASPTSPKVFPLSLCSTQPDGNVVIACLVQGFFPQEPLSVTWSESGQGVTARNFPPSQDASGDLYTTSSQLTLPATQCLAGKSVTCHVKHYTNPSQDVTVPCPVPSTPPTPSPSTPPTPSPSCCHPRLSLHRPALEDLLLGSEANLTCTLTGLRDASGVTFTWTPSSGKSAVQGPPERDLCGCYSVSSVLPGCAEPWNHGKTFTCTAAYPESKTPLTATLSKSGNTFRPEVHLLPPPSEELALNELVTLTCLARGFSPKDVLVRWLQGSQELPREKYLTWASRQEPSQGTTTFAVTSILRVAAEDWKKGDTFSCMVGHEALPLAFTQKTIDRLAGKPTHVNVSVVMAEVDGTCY

B1: wheat germ agglutinin (WGA), agarose-bound (other, UniProt P10968 27-197, looked up)
chain: QRCGEQGSNMECPNNLCCSQYGYCGMGGDYCGKGCQNGACWTSKRCGSQAGGATCTNNQCCSQYGYCGFGAEYCGAGCQGGPCRADIKCGSQAGGKLCPNNLCCSQWGFCGLGSEFCGGGCQSGACSTDKPCGKDAGGRVCTNNYCCSKWGSCGIGPGYCGAGCQSGGCDG
modifications: immobilized on agarose
notes: Lectin; released with N-acetyl-glucosamine; Coated on the plate in the lectin ELISA
With B1 the “SEQUEST ranking (relative abundance in the WGA displacement fraction)” value [1] was 6 to 10 rank, the “SEQUEST ranking (relative abundance in the WGA displacement fraction)” value [2] was 1 to 5 rank and the “SEQUEST ranking (relative abundance in the WGA displacement fraction)” value [3] was 1 to 5 rank. The “SEQUEST ranking (relative abundance in the WGA displacement fraction)” value [4] was 1 to 5 rank, the “SEQUEST ranking (relative abundance in the WGA displacement fraction)” value [5] was 16 to 20 rank and the “SEQUEST ranking (relative abundance in the WGA displacement fraction)” value [6] was 6 to 10 rank.
